Measurements taken from the supplement of paper PMC9112550, “Optimization of the antimicrobial peptide Bac7 by deep mutational scanning” (BMC Biology, 2022).

These sequences were tested on Escherichia coli TOP10 (assay: shrunken log2 fold change of peptide-encoding DNA abundance (4.5 h post-induction vs induction); higher = less antimicrobial activity (less host growth inhibition)). Settings: time post-induction: 4.5 h; library: site-saturation at positions 5, 18, 19, 20.
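Further: peptides expressed intracellularly from a pBAD plasmid library in pooled LB shake-flask culture, induced with 0.3% L-arabinose, DNA abundance read by NGS, three biological replicates, DESeq2 with apeglm shrinkage.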

Row | Sequence | shrunken log2 fold change
1 | RRIRDRPPRLPRPRPRPSTSPRP | -0.115
2 | RRIRDRPPRLPRPRPRPSWAPRP | -0.102
3 | RRIRDRPPRLPRPRPRPSYWPRP | -0.0689
4 | RRIRDRPPRLPRPRPRPTAMPRP | 0.858
5 | RRIRDRPPRLPRPRPRPTDKPRP | -0.118
6 | RRIRDRPPRLPRPRPRPTECPRP | -0.0183
7 | RRIRDRPPRLPRPRPRPTENPRP | 0.277
8 | RRIRDRPPRLPRPRPRPTFFPRP | 2.16
9 | RRIRDRPPRLPRPRPRPTFHPRP | -0.148
10 | RRIRDRPPRLPRPRPRPTFRPRP | -0.0707
11 | RRIRDRPPRLPRPRPRPTFYPRP | -0.286
12 | RRIRDRPPRLPRPRPRPTGSPRP | 0.0325
13 | RRIRDRPPRLPRPRPRPTKGPRP | 0.0341
14 | RRIRDRPPRLPRPRPRPTLSPRP | 0.262
15 | RRIRDRPPRLPRPRPRPTNMPRP | -0.00949
16 | RRIRDRPPRLPRPRPRPTNRPRP | -0.149
17 | RRIRDRPPRLPRPRPRPTPEPRP | 0.152
18 | RRIRDRPPRLPRPRPRPTPIPRP | 0.103
19 | RRIRDRPPRLPRPRPRPTQVPRP | 0.0721
20 | RRIRDRPPRLPRPRPRPTRGPRP | 0.67
21 | RRIRDRPPRLPRPRPRPTRQPRP | 0.228
22 | RRIRDRPPRLPRPRPRPTSMPRP | 0.104
23 | RRIRDRPPRLPRPRPRPTTDPRP | 0.547
24 | RRIRDRPPRLPRPRPRPTTSPRP | 0.335
25 | RRIRDRPPRLPRPRPRPTVFPRP | 0.708

Row | Sequence | shrunken log2 fold change
26 | RRIRDRPPRLPRPRPRPTWTPRP | -0.043
27 | RRIRDRPPRLPRPRPRPVCDPRP | 0.696
28 | RRIRDRPPRLPRPRPRPVCVPRP | 0.514
29 | RRIRDRPPRLPRPRPRPVCYPRP | -0.0717
30 | RRIRDRPPRLPRPRPRPVDFPRP | 0.0775
31 | RRIRDRPPRLPRPRPRPVDVPRP | -0.185
32 | RRIRDRPPRLPRPRPRPVEEPRP | 0.525
33 | RRIRDRPPRLPRPRPRPVEPPRP | 0.0157
34 | RRIRDRPPRLPRPRPRPVFMPRP | 0.11
35 | RRIRDRPPRLPRPRPRPVFWPRP | 0.639
36 | RRIRDRPPRLPRPRPRPVGHPRP | 0.423
37 | RRIRDRPPRLPRPRPRPVGSPRP | 0.519
38 | RRIRDRPPRLPRPRPRPVHNPRP | -0.585
39 | RRIRDRPPRLPRPRPRPVHWPRP | 0.31
40 | RRIRDRPPRLPRPRPRPVIGPRP | 0.16
41 | RRIRDRPPRLPRPRPRPVKQPRP | -0.0215
42 | RRIRDRPPRLPRPRPRPVKVPRP | -0.0343
43 | RRIRDRPPRLPRPRPRPVKYPRP | -0.346
44 | RRIRDRPPRLPRPRPRPVLHPRP | 0.0367
45 | RRIRDRPPRLPRPRPRPVLIPRP | -0.0161
46 | RRIRDRPPRLPRPRPRPVLLPRP | -0.00551
47 | RRIRDRPPRLPRPRPRPVNAPRP | 0.188
48 | RRIRDRPPRLPRPRPRPVNHPRP | -0.514
49 | RRIRDRPPRLPRPRPRPVPAPRP | 0.341
50 | RRIRDRPPRLPRPRPRPVPDPRP | -0.0933

Row | Sequence | shrunken log2 fold change
51 | RRIRDRPPRLPRPRPRPVPIPRP | 0.245
52 | RRIRDRPPRLPRPRPRPVPSPRP | 0.314
53 | RRIRDRPPRLPRPRPRPVQIPRP | -0.0711
54 | RRIRDRPPRLPRPRPRPVQKPRP | -0.0131
55 | RRIRDRPPRLPRPRPRPVQTPRP | -0.0375
56 | RRIRDRPPRLPRPRPRPVRYPRP | 0.152
57 | RRIRDRPPRLPRPRPRPVSIPRP | -0.105
58 | RRIRDRPPRLPRPRPRPVVHPRP | 0.0965
59 | RRIRDRPPRLPRPRPRPVVQPRP | -0.0248
60 | RRIRDRPPRLPRPRPRPVYFPRP | -0.447
61 | RRIRDRPPRLPRPRPRPWCMPRP | -1
62 | RRIRDRPPRLPRPRPRPWHVPRP | 0.015
63 | RRIRDRPPRLPRPRPRPWIKPRP | 0.00902
64 | RRIRDRPPRLPRPRPRPWITPRP | -0.123
65 | RRIRDRPPRLPRPRPRPWLFPRP | 0.0977
66 | RRIRDRPPRLPRPRPRPWLNPRP | -0.277
67 | RRIRDRPPRLPRPRPRPWLRPRP | 0.081
68 | RRIRDRPPRLPRPRPRPWMRPRP | 0.013
69 | RRIRDRPPRLPRPRPRPWMYPRP | -0.267
70 | RRIRDRPPRLPRPRPRPWNQPRP | -0.0409
71 | RRIRDRPPRLPRPRPRPWPCPRP | 0.462
72 | RRIRDRPPRLPRPRPRPWPFPRP | 0.0405
73 | RRIRDRPPRLPRPRPRPWQWPRP | -0.0124
74 | RRIRDRPPRLPRPRPRPWRHPRP | 0.0719
75 | RRIRDRPPRLPRPRPRPWSNPRP | -0.678

Row | Sequence | shrunken log2 fold change
76 | RRIRDRPPRLPRPRPRPWTLPRP | -0.424
77 | RRIRDRPPRLPRPRPRPWVIPRP | -0.00136
78 | RRIRDRPPRLPRPRPRPWVKPRP | 0.0766
79 | RRIRDRPPRLPRPRPRPWVVPRP | 0.0765
80 | RRIRDRPPRLPRPRPRPWWTPRP | -0.327
81 | RRIRDRPPRLPRPRPRPWYAPRP | 0.00564
82 | RRIRDRPPRLPRPRPRPWYDPRP | -0.6
83 | RRIRDRPPRLPRPRPRPWYLPRP | -0.11
84 | RRIRDRPPRLPRPRPRPWYPPRP | -0.0798
85 | RRIRDRPPRLPRPRPRPYALPRP | -0.051
86 | RRIRDRPPRLPRPRPRPYAYPRP | 0.0345
87 | RRIRDRPPRLPRPRPRPYCAPRP | -0.204
88 | RRIRDRPPRLPRPRPRPYCCPRP | -0.151
89 | RRIRDRPPRLPRPRPRPYDFPRP | -0.178
90 | RRIRDRPPRLPRPRPRPYGIPRP | -0.00973
91 | RRIRDRPPRLPRPRPRPYIQPRP | -0.161
92 | RRIRDRPPRLPRPRPRPYKPPRP | -0.0448
93 | RRIRDRPPRLPRPRPRPYLCPRP | -0.148
94 | RRIRDRPPRLPRPRPRPYMEPRP | -0.000464
95 | RRIRDRPPRLPRPRPRPYQCPRP | -0.00205
96 | RRIRDRPPRLPRPRPRPYRGPRP | -0.0122
97 | RRIRDRPPRLPRPRPRPYRSPRP | -0.142
98 | RRIRDRPPRLPRPRPRPYTEPRP | -0.0346
99 | RRIRDRPPRLPRPRPRPYTWPRP | 0.00489
100 | RRIRDRPPRLPRPRPRPYVGPRP | -0.0122

Row | Sequence | shrunken log2 fold change
101 | RRIRDRPPRLPRPRPRPYVMPRP | -0.342
102 | RRIRDRPPRLPRPRPRPYVQPRP | -0.13
103 | RRIRDRPPRLPRPRPRPYWYPRP | 0.00534
104 | RRIRERPPRLPRPRPRPAAIPRP | -0.215
105 | RRIRERPPRLPRPRPRPAAPPRP | 0.504
106 | RRIRERPPRLPRPRPRPACNPRP | -0.102
107 | RRIRERPPRLPRPRPRPACVPRP | 0.24
108 | RRIRERPPRLPRPRPRPADAPRP | 0.117
109 | RRIRERPPRLPRPRPRPAFCPRP | -0.21
110 | RRIRERPPRLPRPRPRPAHDPRP | -0.181
111 | RRIRERPPRLPRPRPRPAHEPRP | 0.0932
112 | RRIRERPPRLPRPRPRPAHIPRP | -0.0903
113 | RRIRERPPRLPRPRPRPAIDPRP | -0.457
114 | RRIRERPPRLPRPRPRPAKWPRP | 0.0478
115 | RRIRERPPRLPRPRPRPALDPRP | -0.0626
116 | RRIRERPPRLPRPRPRPAMAPRP | 0.631
117 | RRIRERPPRLPRPRPRPAMDPRP | 0.283
118 | RRIRERPPRLPRPRPRPAMIPRP | -0.0554
119 | RRIRERPPRLPRPRPRPAMSPRP | -0.0829
120 | RRIRERPPRLPRPRPRPAMVPRP | 0.037
121 | RRIRERPPRLPRPRPRPANDPRP | -0.0189
122 | RRIRERPPRLPRPRPRPANHPRP | -0.00846
123 | RRIRERPPRLPRPRPRPAPAPRP | 0.305
124 | RRIRERPPRLPRPRPRPAQEPRP | 0.597
125 | RRIRERPPRLPRPRPRPAQQPRP | -0.0516

Row | Sequence | shrunken log2 fold change
126 | RRIRERPPRLPRPRPRPARLPRP | 0.361
127 | RRIRERPPRLPRPRPRPARNPRP | 0.194
128 | RRIRERPPRLPRPRPRPASAPRP | 0.33
129 | RRIRERPPRLPRPRPRPATKPRP | 0.156
130 | RRIRERPPRLPRPRPRPATNPRP | -0.386
131 | RRIRERPPRLPRPRPRPAYGPRP | -0.108
132 | RRIRERPPRLPRPRPRPAYVPRP | -0.859
133 | RRIRERPPRLPRPRPRPCAVPRP | -0.0406
134 | RRIRERPPRLPRPRPRPCDVPRP | -0.017
135 | RRIRERPPRLPRPRPRPCERPRP | -0.0138
136 | RRIRERPPRLPRPRPRPCHCPRP | -0.344
137 | RRIRERPPRLPRPRPRPCKNPRP | -0.121
138 | RRIRERPPRLPRPRPRPCLNPRP | -0.267
139 | RRIRERPPRLPRPRPRPCMGPRP | -0.0551
140 | RRIRERPPRLPRPRPRPCNVPRP | -0.0745
141 | RRIRERPPRLPRPRPRPCPAPRP | -0.224
142 | RRIRERPPRLPRPRPRPCPEPRP | -0.324
143 | RRIRERPPRLPRPRPRPCPLPRP | -0.265
144 | RRIRERPPRLPRPRPRPCPRPRP | -0.021
145 | RRIRERPPRLPRPRPRPCPYPRP | -0.367
146 | RRIRERPPRLPRPRPRPCQSPRP | -0.127
147 | RRIRERPPRLPRPRPRPCQWPRP | -0.017
148 | RRIRERPPRLPRPRPRPCRLPRP | -0.197
149 | RRIRERPPRLPRPRPRPCSLPRP | -0.264
150 | RRIRERPPRLPRPRPRPCTDPRP | -0.169
